Measurements as given in publication PMC9507012 (Blood, 2022).
Where “and” joins values, the source holds several entries; their conditions need not be identical. Identical values can stand only once.

Target: the molecule itself
Experiment: crystal structure

B1: MEF2D_(2-95) (N-terminal residues 2-95 of human MEF2D) (domain or fragment, UniProt Q14814 2-95, looked up)
chain: GRKKIQIQRITDERNRQVTFTKRKFGLMKKAYELSVLCDCEIALIIFNHSNKLFQYASTDMDKVLLKYTEYNEPHESRTNADIIETLRKKGFNG
**Q.** For B1, which “stoichiometry N” value is on record?
**A.** The value was 2 and 4.
